# Assay results as given in patent US20230357447A1 (JANUX THERAPEUTICS, published 2023).
# Key:
# [1] = molecular target: T1, anti-CD28 scFv (VH-linker 1-VL) (biotinylated (site not stated)); assay: phage ELISA; biotinylated scFv on neutravidin plate; anti-M13-HRP;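 also: crude clonal phage supernatant added to wells pre-incubated with soluble CD28 protein or only blocking buffer, then washed, bound phage read out with an HRP-linked anti-M13 antibody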
# T1 construct: Captured as biotinylated scFv on neutravidin coated plates in the phage ELISA
# [2] = molecular target: T1, anti-CD28 scFv (VH-linker 1-VL); assay: phage ELISA; scFv wells pre-incubated with soluble CD28 (competitor);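 also: crude clonal phage supernatants added to wells pretreated with soluble CD28 in blocking buffer, bound phage read via HRP-linked anti-M13 antibody, reference wells got blocking buffer only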
# T1 sequence (scFv, as listed by the source): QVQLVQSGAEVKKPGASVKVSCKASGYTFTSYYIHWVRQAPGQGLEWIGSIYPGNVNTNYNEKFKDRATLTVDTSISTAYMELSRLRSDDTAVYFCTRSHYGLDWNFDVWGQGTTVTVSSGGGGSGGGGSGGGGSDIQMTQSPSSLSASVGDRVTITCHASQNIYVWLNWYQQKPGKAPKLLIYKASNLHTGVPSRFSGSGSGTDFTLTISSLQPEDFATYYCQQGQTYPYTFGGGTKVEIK
Binder,CD28 scFv signal [1],CD28 scFv signal in presence of CD28 [2]
WVSCLRHHWLECFH (on phage (pIII fusion)) [Phage-274 clonal phage peptide],0.723,0.858
MDWCPRHMWINCFA (on phage (pIII fusion)) [Phage-252 clonal phage peptide],0.92,0.165
MDWCPMFLWHECFN (on phage (pIII fusion)) [Phage-309 clonal phage peptide],2.38,0.591
MDWCPRFLWHECFN (on phage (pIII fusion)) [Phage-257 clonal phage peptide],2.59,0.351
MDWCPMFMWHECFN (on phage (pIII fusion)) [Phage-261 clonal phage peptide],2.23,1.04
MDWCPMFLWDECFN (on phage (pIII fusion)) [Phage-318 clonal phage peptide],2.29,0.203
MDWCPRHLWHECYS (on phage (pIII fusion)) [Phage-241 clonal phage peptide],2.58,0.374
MDWCPFDLWHVCYN (on phage (pIII fusion)) [Phage-256 clonal phage peptide],2.6,0.651
MDWCPRDFWAFCFF (on phage (pIII fusion)) [Phage-270 clonal phage peptide],2.37,0.655
DSFCTWSAWQECGR (on phage (pIII fusion)) [Phage-269 clonal phage peptide],0.13,0.101
MDWCPRNLWHLCFA (on phage (pIII fusion)) [Phage-245 clonal phage peptide],1.4,0.164
MDWCPRHMWHECFA (on phage (pIII fusion)) [Phage-263 clonal phage peptide],2.52,0.298
MDWCPRNLWHACFN (on phage (pIII fusion)) [Phage-259 clonal phage peptide],1.57,0.112
MDWCPRYLWHVCFN (on phage (pIII fusion)) [Phage-239 clonal phage peptide],2.6,0.409
MDWCPRYLWHECFD (on phage (pIII fusion)) [Phage-244 clonal phage peptide],2.07,0.177
MDWCPRYLWTECFS (on phage (pIII fusion)) [Phage-303 clonal phage peptide],2.42,0.329
MDWCPRTLWHVCFN (on phage (pIII fusion)) [Phage-240 clonal phage peptide],2.6,0.551
MDWCPSYLWHECFF (on phage (pIII fusion)) [Phage-237 clonal phage peptide],2.61,0.447
MDWCPRYLWHVCFY (on phage (pIII fusion)) [Phage-291 clonal phage peptide],2.5,1.14
MDWCPRHLWHVCFN (on phage (pIII fusion)) [Phage-264 clonal phage peptide],2.67,0.636
MDWCPRYLWHVCFD (on phage (pIII fusion)) [Phage-302 clonal phage peptide],2.44,0.31
MDWCPRHLWSVCFN (on phage (pIII fusion)) [Phage-255 clonal phage peptide],2.65,0.825
MDWCPRYLWHECFF (on phage (pIII fusion)) [Phage-301 clonal phage peptide],2.45,0.682
MDWCPRYLWHECFS (on phage (pIII fusion)) [Phage-235 clonal phage peptide],2.65,0.303
MDWCPRDLWTECFS (on phage (pIII fusion)) [Phage-305 clonal phage peptide],2.4,0.174

Binder,CD28 scFv signal [1],CD28 scFv signal in presence of CD28 [2]
MDWCPRSLWHVCFN (on phage (pIII fusion)) [Phage-258 clonal phage peptide],2.41,0.238
MDWCPKVMWHYCFA (on phage (pIII fusion)) [Phage-250 clonal phage peptide],1.14,0.252
MDWCPRDHWVDCYS (on phage (pIII fusion)) [Phage-275 clonal phage peptide],0.671,0.092
MDWCPRFMWSECFS (on phage (pIII fusion)) [Phage-251 clonal phage peptide],1.01,0.137
MDWCPRFMWAECFN (on phage (pIII fusion)) [Phage-247 clonal phage peptide],2.6,0.341
MYWCATSMWNRCFV (on phage (pIII fusion)) [Phage-262 clonal phage peptide],0.398,0.415
MVWCMSVGWAVCLN (on phage (pIII fusion)) [Phage-272 clonal phage peptide],0.271,0.284
MDWCPKHLWNKCFN (on phage (pIII fusion)) [Phage-246 clonal phage peptide],1.16,0.092
MDWCPKHLWTECFA (on phage (pIII fusion)) [Phage-242 clonal phage peptide],2.49,0.145
MVGCATSMWNRCLT (on phage (pIII fusion)) [Phage-253 clonal phage peptide],0.77,0.746
MDWCPPYLWSECFA (on phage (pIII fusion)) [Phage-238 clonal phage peptide],2.6,0.234
MDWCPRYLWSECFA (on phage (pIII fusion)) [Phage-254 clonal phage peptide],2.71,0.513
MDWCPTSFWNRCFH (on phage (pIII fusion)) [Phage-271 clonal phage peptide],0.087,0.092
IDWCPKIHWDLCYF (on phage (pIII fusion)) [Phage-276 clonal phage peptide],0.295,0.082
VTSCPTTMWNRCFS (on phage (pIII fusion)) [Phage-266 clonal phage peptide],1.22,0.546
MDWCPRNMWHHCFD (on phage (pIII fusion)) [Phage-248 clonal phage peptide],1.6,0.524
MDWCPRHLWYECFN (on phage (pIII fusion)) [Phage-243 clonal phage peptide],2.41,0.167
MDWCPRHLWNECFN (on phage (pIII fusion)) [Phage-283 clonal phage peptide],2.65,0.393
MDWCPIHLWNECFN (on phage (pIII fusion)) [Phage-314 clonal phage peptide],2.35,0.157
MDWCPRHLWFECFF (on phage (pIII fusion)) [Phage-300 clonal phage peptide],2.45,0.479
MDWCPRHLWNECFA (on phage (pIII fusion)) [Phage-306 clonal phage peptide],2.39,0.17
MDWCPVFMWNECFN (on phage (pIII fusion)) [Phage-260 clonal phage peptide],2.66,0.356
MTLCLSVDLVHCWY (on phage (pIII fusion)) [Phage-267 clonal phage peptide],0.632,0.093
MDWCPSDMWAHCYN (on phage (pIII fusion)) [Phage-249 clonal phage peptide],1.21,0.109
